According to patent publication US20130266566A1 (AbbVie / Abbott, published 2013):

How the values were obtained:
Assay in all cases: cell-based or functional assay
mouse PAI-1 = molecular target: T1, mouse PAI-1 (mouse, UniProt P22777 24-401)
T1 sequence: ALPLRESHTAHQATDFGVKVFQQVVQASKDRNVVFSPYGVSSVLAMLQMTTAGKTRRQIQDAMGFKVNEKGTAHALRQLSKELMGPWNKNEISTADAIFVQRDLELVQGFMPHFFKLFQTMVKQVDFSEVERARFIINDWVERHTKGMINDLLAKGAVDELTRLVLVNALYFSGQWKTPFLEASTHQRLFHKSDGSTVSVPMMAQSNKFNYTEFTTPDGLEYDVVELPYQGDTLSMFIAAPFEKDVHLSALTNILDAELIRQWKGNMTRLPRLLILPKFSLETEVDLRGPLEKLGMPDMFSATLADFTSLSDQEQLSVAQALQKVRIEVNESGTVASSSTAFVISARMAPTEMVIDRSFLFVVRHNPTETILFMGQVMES

rat PAI-1 = molecular target: T2, rat PAI-1 (rat, UniProt P20961 24-402)
T2 sequence: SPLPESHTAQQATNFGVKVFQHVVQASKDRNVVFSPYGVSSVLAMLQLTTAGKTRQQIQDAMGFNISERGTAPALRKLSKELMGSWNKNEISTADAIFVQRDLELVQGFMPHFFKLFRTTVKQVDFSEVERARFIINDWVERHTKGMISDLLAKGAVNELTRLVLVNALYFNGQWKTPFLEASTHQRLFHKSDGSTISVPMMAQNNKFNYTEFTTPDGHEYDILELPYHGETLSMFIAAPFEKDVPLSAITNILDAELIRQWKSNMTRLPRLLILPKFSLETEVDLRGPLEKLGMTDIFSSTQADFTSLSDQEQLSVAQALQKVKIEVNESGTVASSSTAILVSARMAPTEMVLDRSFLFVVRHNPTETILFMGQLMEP

[1] = molecular target: active human PAI-1, recombinant, wild-type, non-glycosylated (E. coli) (human, UniProt P05121 24-402)
cynomolgus PAI-1 = cynomolgus PAI-1 (cynomolgus, UniProt P05121 24-402 (human entry), limits assumed)

B1: Antibody 02 scFv (scFv)
chain: QVQLVQSGAEVKKPGSSVKVSCKASGGTFSSYAISWVRQAPGQGLEWMGGIIPTFGTANYAQKFQGRVTITADESTSTAYMELSSLRSEDTAVYYCAREKRQWLEGHFDYWGRGTLVTVSSDIQMTQSPSTLSASVGDRVTITCRASEGIYHSLAWYQQKPGKAPKLLIYKASSLASGVPSRFSGSGSGTEFTLTISSLQPDDFATYYCQQYSDYPLTFGGGTKVEIK
B1 was tested, and the “Chromogenic (IC50 in nM) mouse” value (mouse PAI-1) was 553 nM, the “Chromogenic IC50 ratio mouse/human” value (mouse PAI-1) was 929 fold and the “Chromogenic (IC50 in nM) rat” value (rat PAI-1) was 530 nM. For the same binder, the “Chromogenic IC50 ratio rat/human” value (rat PAI-1) was 891 fold, the “Chromogenic (IC50 in nM) human” value [1] was 0.6 nM and the “Chromogenic (IC50 in nM) cyno” value (cynomolgus PAI-1) was 1.1 nM. For the same binder, the “Chromogenic IC50 ratio cyno/human” value (cynomolgus PAI-1) was 1.8 fold.

B2: Antibody 04 scFv (scFv)
chain: QVRLQQSGAEVKKPGSSVKVSCKASGGTFSSYAISWVRQAPGQGLEWMGGIIPTFGTANYAQKFRGRVTITANESTSTAYMELSGLRSEDTAVYYCAREKRQWLEGRFDYWGRGTLVTVSSDIQMTQSPSFLSASIGDRITITCRASEGIYHSLAWYQQKPGKAPKLLIHRATSLASGTPSRFGGSGSGTDFALTISSLQPDDFATYYCQQYSNYPLTFGGGTKLEIK
For B2, the “Chromogenic (IC50 in nM) mouse” value (mouse PAI-1) was 264 nM, the “Chromogenic IC50 ratio mouse/human” value (mouse PAI-1) was 39.9 fold and the “Chromogenic (IC50 in nM) rat” value (rat PAI-1) was 340 nM. For the same binder, the “Chromogenic IC50 ratio rat/human” value (rat PAI-1) was 51.4 fold, the “Chromogenic (IC50 in nM) human” value [1] was 6.6 nM and the “Chromogenic (IC50 in nM) cyno” value (cynomolgus PAI-1) was 2.1 nM. The “Chromogenic IC50 ratio cyno/human” value (cynomolgus PAI-1) was 0.3 fold.

B3: Antibody 23 scFv (scFv)
chain: QVQLQQSGAEVKKPGSSVKVSCKASGGTFSSYAISWVRQAPGQGLEWMGGIIPTFGTANYAQKFQSRVTITADESTSTAYMELSGLRSEDTAVYYCAREKRQWLEGHFDYWGRGTPVTVSSDIQMTQSPSFLSASIGDRVTITCRASEGIYHSLAWYQQKPGKAPKLLIYRASSLASGAPSRFSGSGSGTDFTLTISSLQPDDFATYYCQQYSNYPLTFGGGTKLEIK
In the case of B3, the “Chromogenic (IC50 in nM) mouse” value (mouse PAI-1) is reported as 376 nM, the “Chromogenic IC50 ratio mouse/human” value (mouse PAI-1) is reported as 229 fold and the “Chromogenic (IC50 in nM) rat” value (rat PAI-1) is reported as 376 nM. For the same binder, the “Chromogenic IC50 ratio rat/human” value (rat PAI-1) was 229 fold, the “Chromogenic (IC50 in nM) human” value [1] was 1.6 nM and the “Chromogenic (IC50 in nM) cyno” value (cynomolgus PAI-1) was 0.5 nM. The “Chromogenic IC50 ratio cyno/human” value (cynomolgus PAI-1) was 0.3 fold.

B4: Antibody 05 scFv (scFv)
chain: QVQLQQSGAEVKKPGSSVKVSCKASGGTFSSYAISWVRQAPGQGLEWMGGIIPTFSTANYAQKFRGRVTITADESTSTAYMELSGLRSEDTAVYYCAREKRQWLEGHFDYWGRGTPVTVSSDIQMTQSPSFLSASIGDRVTITCRASEGIYHQLAWYQQKPGKAPKLLIYRASSLASGAPSRFSGSGSGTDFTLTISSLQPDDFATYYCQQYSNYPLTFGGGTKLEIK
In the case of B4, the “Chromogenic (IC50 in nM) mouse” value (mouse PAI-1) is reported as 718 nM, the “Chromogenic IC50 ratio mouse/human” value (mouse PAI-1) is reported as 144 fold and the “Chromogenic (IC50 in nM) rat” value (rat PAI-1) is reported as 860 nM. The “Chromogenic IC50 ratio rat/human” value (rat PAI-1) was 172 fold, the “Chromogenic (IC50 in nM) human” value [1] was 5 nM and the “Chromogenic (IC50 in nM) cyno” value (cynomolgus PAI-1) was 0.5 nM. The “Chromogenic IC50 ratio cyno/human” value (cynomolgus PAI-1) was 0.1 fold.

B5: Antibody 10 scFv (scFv)
chain: QVQLQQSGAEVKKPGSSVKVSCKASGGTFSSYAISWVRQAPGQGLEWMGGIIPTFGTANYAQKFQGRVTITADESTSTAYMELSSLRSEDTAVYYCAREKRQWLEGHFDYWGRGTPVTVSSDIQMTQSPSFLSASIGDRVAITCRASEGIYHSLAWYQQKPGKAPKLLIYRASSLASGAPSRFSGSGSGTDFTLTISSLQPDDFATYYCQQYSNYPLTFGGGTRLEIK
B5 was tested, and the “Chromogenic (IC50 in nM) mouse” value (mouse PAI-1) was 334 nM, the “Chromogenic IC50 ratio mouse/human” value (mouse PAI-1) was 149 fold and the “Chromogenic (IC50 in nM) rat” value (rat PAI-1) was 296 nM. The “Chromogenic IC50 ratio rat/human” value (rat PAI-1) was 132 fold, the “Chromogenic (IC50 in nM) human” value [1] was 2.2 nM and the “Chromogenic (IC50 in nM) cyno” value (cynomolgus PAI-1) was 0.5 nM. For the same binder, the “Chromogenic IC50 ratio cyno/human” value (cynomolgus PAI-1) was 0.2 fold.

B6: Antibody 26 scFv (scFv)
chain: QVQLQQSGAEVKKPGTSVKVSCKASGGTFSSYAISWVRQAPGQGLEWMGGIIPIFGTANYAQKFQGRVTITADESTSTAYMELSSLRSEDTAVYYCAREKRQWLEGHFDYWGRGTPVTVSSDIQMTQSPSFLSASIGDRVTITCRASEGIYHTLAWYQQKPGKAPKLLIYRASSLASGAPSRFSGSGSGTDFTLTISSLQPDDFATYYCQQYSNYPLTFGGGTKLEIK
For B6, the “Chromogenic (IC50 in nM) mouse” value (mouse PAI-1) was 211 nM, the “Chromogenic IC50 ratio mouse/human” value (mouse PAI-1) was 52.9 fold and the “Chromogenic (IC50 in nM) rat” value (rat PAI-1) was 245 nM. For the same binder, the “Chromogenic IC50 ratio rat/human” value (rat PAI-1) was 61.4 fold, the “Chromogenic (IC50 in nM) human” value [1] was 4 nM and the “Chromogenic (IC50 in nM) cyno” value (cynomolgus PAI-1) was 1.2 nM. For the same binder, the “Chromogenic IC50 ratio cyno/human” value (cynomolgus PAI-1) was 0.3 fold.

B7: Antibody 07 scFv (scFv)
chain: QVQLQQSGAEVKKPGSSVKVSCKASGGTFSSYAISWVRQAPGQGLEWVGGIIPTFGTANYAQKFQGRVTITADESTSTAYMELSGLRSEDTAVYYCAREKRQWLEGHFDYWGRGTPVTVSSDIQMAQSPSFLSASIGDRVTITCRASEGIYHELAWYQQKPGKAPKLLIYRASSLASGAPSRFSGSGSGTDFTLTISSLQPDDFATYYCQQYSNYPLTFGGGTKLEIK
With B7 the “Chromogenic (IC50 in nM) mouse” value (mouse PAI-1) was 143 nM, the “Chromogenic IC50 ratio mouse/human” value (mouse PAI-1) was 0.8 fold and the “Chromogenic (IC50 in nM) rat” value (rat PAI-1) was 91 nM. The “Chromogenic IC50 ratio rat/human” value (rat PAI-1) was 0.5 fold, the “Chromogenic (IC50 in nM) human” value [1] was 187 nM and the “Chromogenic (IC50 in nM) cyno” value (cynomolgus PAI-1) was 117 nM. The “Chromogenic IC50 ratio cyno/human” value (cynomolgus PAI-1) was 0.6 fold.

B8: Antibody 06 scFv (scFv)
chain: QVQLQQSGAEVKKPGSSVKVSCKASGGTFSSYAISWVRQAPGQGLEWMGGIIPTFGTANYAQKFQGRVTITADESTSTAYMELSGLRSEDTAVYYCAREKRQWLEGHFDYWGRGTPVTVSSDIQMTQSPSFLSASIGDRVTITCRASEGIYHELAWYQQKPGKAPKLLIYRASSLASGAPSRFSGSGSGTDFTLTISSLQPDDFATYYCQQYSNYPLTFGRGTKLEIK
In the case of B8, the “Chromogenic (IC50 in nM) mouse” value (mouse PAI-1) is reported as 48.2 nM, the “Chromogenic IC50 ratio mouse/human” value (mouse PAI-1) is reported as 0.6 fold and the “Chromogenic (IC50 in nM) rat” value (rat PAI-1) is reported as 37.1 nM. The “Chromogenic IC50 ratio rat/human” value (rat PAI-1) was 0.5 fold, the “Chromogenic (IC50 in nM) human” value [1] was 74.6 nM and the “Chromogenic (IC50 in nM) cyno” value (cynomolgus PAI-1) was 31.6 nM. The “Chromogenic IC50 ratio cyno/human” value (cynomolgus PAI-1) was 0.4 fold.

B9: Antibody 03 scFv (scFv)
chain: QVQLQQSGAEVKKPGSSVKVSCKASGGTFSSYAISWVRQAPGQGLEWMGGIIPTFGTANYAQKFQGRVTITADESTSTAYMELSGLRSEDTAVYYCAREKRQWLEGHFDYWGRGTPVTVSSDIQMTQSPSFLSASIGDRVTITCRASEGIYRSLAWYQQKPGKAPKLLIYKASSLASGAPSRFSGSGSGTDFTLTISGLQPDDFATYYCQQYSNYPLTFGGGTKLEIK
With B9 the “Chromogenic (IC50 in nM) mouse” value (mouse PAI-1) was 54.9 nM, the “Chromogenic IC50 ratio mouse/human” value (mouse PAI-1) was 30.5 fold and the “Chromogenic (IC50 in nM) rat” value (rat PAI-1) was 297 nM. For the same binder, the “Chromogenic IC50 ratio rat/human” value (rat PAI-1) was 165 fold, the “Chromogenic (IC50 in nM) human” value [1] was 1.8 nM and the “Chromogenic (IC50 in nM) cyno” value (cynomolgus PAI-1) was 0.1 nM. For the same binder, the “Chromogenic IC50 ratio cyno/human” value (cynomolgus PAI-1) was 0.1 fold.

B10: Antibody 25 scFv (scFv)
chain: QVQLQQSGAEVKKPGSSVKVSCKASGGTFSSYAISWVRQAPGQGLEWMGGIIPTFGTANYAQKFQGRVTITADESTSTAYMELSGLRSEDTAVYYCARERRQWLEGHFDYWGQGTPVTVSSDIQMTQSPSFLSASIGDRVTITCRASESIYHELAWYQQKPGKAPKLLIYKASSLASGAPSRFSGSGSGTAFTLTISSLQPDDFATYYCQQYSNYPLTFGGGTKLEIK
With B10 the “Chromogenic (IC50 in nM) mouse” value (mouse PAI-1) was 172 nM, the “Chromogenic IC50 ratio mouse/human” value (mouse PAI-1) was 13.1 fold and the “Chromogenic (IC50 in nM) rat” value (rat PAI-1) was 322 nM. The “Chromogenic IC50 ratio rat/human” value (rat PAI-1) was 24.6 fold, the “Chromogenic (IC50 in nM) human” value [1] was 13.1 nM and the “Chromogenic (IC50 in nM) cyno” value (cynomolgus PAI-1) was 4.6 nM. The “Chromogenic IC50 ratio cyno/human” value (cynomolgus PAI-1) was 0.4 fold.

B11: Antibody 24 scFv (scFv)
chain: QVQLQQSGAEVKKPGSSVKVSCKASGGTFSSYAISWVRQAPGQGLEWMGGIIPTFVTANYAQKFQGRVSITADESTSTAYMELSGLRSEDTAVYYCAREKRQWLEGHFDYWGRGTPVTVSSDIQMTQSPSFLSASIGDRVTITCRASEGIYHALAWYQQKPGKAPKLLIYRASSLASGAPSRFSGSGSGTDFTLTISSLQPDDFATYYCQQYSNYPLTFGGGTKLEIK
B11 was tested, and the “Chromogenic (IC50 in nM) mouse” value (mouse PAI-1) was 140 nM, the “Chromogenic IC50 ratio mouse/human” value (mouse PAI-1) was 43.3 fold and the “Chromogenic (IC50 in nM) rat” value (rat PAI-1) was 127 nM. For the same binder, the “Chromogenic IC50 ratio rat/human” value (rat PAI-1) was 39.3 fold, the “Chromogenic (IC50 in nM) human” value [1] was 3.2 nM and the “Chromogenic (IC50 in nM) cyno” value (cynomolgus PAI-1) was 1.1 nM. The “Chromogenic IC50 ratio cyno/human” value (cynomolgus PAI-1) was 0.3 fold.
